Measured values from patent US20250042956A1.

Legend:
[1] = target: AT1G22950.1 ICU11 (Arabidopsis thaliana) (UniProt Q3ED68); assay: IP-MS rep 1
[2] = target: AT1G49950.3 TRB1 (Arabidopsis thaliana) (UniProt Q8VWK4); assay: IP-MS rep 1
[3] = target: AT2G23380.1 CLF (Arabidopsis thaliana) (UniProt P93831); assay: IP-MS rep 1
[4] = target: AT3G10480.3 NAC050 (Arabidopsis thaliana) (UniProt Q9SQX9); assay: IP-MS rep 1
[5] = target: AT3G10490.2 NAC052 (Arabidopsis thaliana) (UniProt Q9SQY0); assay: IP-MS rep 1
[6] = target: AT3G18210.1 CP2 (Arabidopsis thaliana) (UniProt P0DO23); assay: IP-MS rep 1
Chain of AT3G18210.1 CP2 (Arabidopsis thaliana) (P0DO23 whole entry): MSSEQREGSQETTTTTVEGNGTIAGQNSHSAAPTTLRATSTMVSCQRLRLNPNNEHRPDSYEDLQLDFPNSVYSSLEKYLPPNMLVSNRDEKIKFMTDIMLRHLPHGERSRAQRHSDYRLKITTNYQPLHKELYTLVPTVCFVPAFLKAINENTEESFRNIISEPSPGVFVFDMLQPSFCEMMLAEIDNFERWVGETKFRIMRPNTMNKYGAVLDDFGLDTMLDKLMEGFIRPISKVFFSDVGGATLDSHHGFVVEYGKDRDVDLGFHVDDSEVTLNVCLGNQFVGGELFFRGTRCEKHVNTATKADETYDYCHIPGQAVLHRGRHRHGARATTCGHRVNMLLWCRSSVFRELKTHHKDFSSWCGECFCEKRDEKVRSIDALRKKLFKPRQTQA

[7] = target: AT3G20740.1 FIE (Arabidopsis thaliana) (UniProt Q9LT47); assay: IP-MS rep 1
[8] = target: T1, AT4G02020.1 SWN (Arabidopsis thaliana) (UniProt Q9ZSM8); assay: IP-MS rep 1
T1 sequence (looked up): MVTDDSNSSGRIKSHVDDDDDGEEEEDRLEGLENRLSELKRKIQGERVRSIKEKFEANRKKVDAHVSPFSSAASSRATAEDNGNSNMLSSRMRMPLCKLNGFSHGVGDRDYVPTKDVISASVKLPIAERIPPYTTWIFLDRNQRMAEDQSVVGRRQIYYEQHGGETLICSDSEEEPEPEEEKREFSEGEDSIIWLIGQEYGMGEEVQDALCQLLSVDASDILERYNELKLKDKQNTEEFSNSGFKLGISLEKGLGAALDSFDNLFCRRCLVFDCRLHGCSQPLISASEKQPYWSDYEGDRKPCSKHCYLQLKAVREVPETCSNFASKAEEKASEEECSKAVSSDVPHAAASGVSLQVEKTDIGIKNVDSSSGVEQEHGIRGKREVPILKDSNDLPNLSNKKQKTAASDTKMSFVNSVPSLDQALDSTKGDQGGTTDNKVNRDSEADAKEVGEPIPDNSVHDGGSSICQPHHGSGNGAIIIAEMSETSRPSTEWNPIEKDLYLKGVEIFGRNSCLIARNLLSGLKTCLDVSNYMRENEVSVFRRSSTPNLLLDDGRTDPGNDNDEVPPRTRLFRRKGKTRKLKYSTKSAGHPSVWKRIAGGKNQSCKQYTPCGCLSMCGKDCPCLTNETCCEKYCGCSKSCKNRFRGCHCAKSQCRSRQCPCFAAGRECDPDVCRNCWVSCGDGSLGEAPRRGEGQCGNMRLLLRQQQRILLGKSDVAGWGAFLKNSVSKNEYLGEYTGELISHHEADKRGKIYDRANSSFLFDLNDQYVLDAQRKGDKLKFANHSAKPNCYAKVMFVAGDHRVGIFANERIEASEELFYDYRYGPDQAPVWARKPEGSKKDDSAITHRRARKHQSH

[9] = target: AT5G11530.1 EMF1 (Arabidopsis thaliana) (UniProt Q9LYD9); assay: IP-MS rep 1
Chain of AT5G11530.1 EMF1 (Arabidopsis thaliana) (Q9LYD9 whole entry): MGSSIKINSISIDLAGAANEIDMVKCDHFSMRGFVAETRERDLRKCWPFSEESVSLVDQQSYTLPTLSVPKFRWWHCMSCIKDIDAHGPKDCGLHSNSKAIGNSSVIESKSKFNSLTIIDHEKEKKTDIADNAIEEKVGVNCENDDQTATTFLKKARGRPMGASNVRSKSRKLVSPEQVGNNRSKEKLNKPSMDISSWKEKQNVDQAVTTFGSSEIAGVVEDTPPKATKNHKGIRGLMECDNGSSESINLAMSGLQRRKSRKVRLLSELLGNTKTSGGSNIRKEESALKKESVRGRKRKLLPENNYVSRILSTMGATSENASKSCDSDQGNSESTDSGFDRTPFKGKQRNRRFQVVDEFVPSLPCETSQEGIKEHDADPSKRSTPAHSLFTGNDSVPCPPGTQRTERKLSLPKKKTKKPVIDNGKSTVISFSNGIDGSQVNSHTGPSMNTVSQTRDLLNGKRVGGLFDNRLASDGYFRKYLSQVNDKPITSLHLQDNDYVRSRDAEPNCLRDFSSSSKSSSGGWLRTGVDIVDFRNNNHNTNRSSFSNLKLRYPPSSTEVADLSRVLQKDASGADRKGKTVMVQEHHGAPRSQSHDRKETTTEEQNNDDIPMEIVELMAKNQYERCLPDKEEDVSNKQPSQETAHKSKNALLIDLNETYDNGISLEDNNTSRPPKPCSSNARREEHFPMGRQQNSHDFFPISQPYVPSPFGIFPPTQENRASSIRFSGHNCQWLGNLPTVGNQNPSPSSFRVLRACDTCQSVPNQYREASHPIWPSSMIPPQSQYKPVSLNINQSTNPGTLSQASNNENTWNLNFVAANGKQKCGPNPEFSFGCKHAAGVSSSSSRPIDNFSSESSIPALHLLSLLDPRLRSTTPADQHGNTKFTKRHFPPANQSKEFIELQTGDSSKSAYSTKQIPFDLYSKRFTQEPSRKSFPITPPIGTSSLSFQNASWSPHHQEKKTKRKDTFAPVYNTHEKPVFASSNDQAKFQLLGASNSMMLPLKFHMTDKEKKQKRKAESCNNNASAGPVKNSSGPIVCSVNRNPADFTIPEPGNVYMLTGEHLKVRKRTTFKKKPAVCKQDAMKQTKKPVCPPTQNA

[10] = target: T2, AT5G17690.1 LHP1 (Arabidopsis thaliana) (UniProt Q946J8); assay: IP-MS rep 1
T2 sequence: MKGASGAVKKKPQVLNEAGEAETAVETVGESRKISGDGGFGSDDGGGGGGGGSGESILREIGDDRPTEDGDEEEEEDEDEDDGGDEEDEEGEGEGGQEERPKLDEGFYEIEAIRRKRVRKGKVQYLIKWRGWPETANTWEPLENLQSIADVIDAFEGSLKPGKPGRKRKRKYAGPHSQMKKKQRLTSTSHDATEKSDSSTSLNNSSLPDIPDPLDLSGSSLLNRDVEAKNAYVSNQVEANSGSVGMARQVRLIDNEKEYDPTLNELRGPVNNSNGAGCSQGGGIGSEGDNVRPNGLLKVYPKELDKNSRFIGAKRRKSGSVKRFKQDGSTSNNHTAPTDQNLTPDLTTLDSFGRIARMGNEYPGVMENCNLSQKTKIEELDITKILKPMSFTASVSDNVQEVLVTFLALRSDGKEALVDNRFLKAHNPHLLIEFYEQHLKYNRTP

[11] = target: AT5G51230.1 EMF2 (Arabidopsis thaliana) (UniProt Q8L6Y4); assay: IP-MS rep 1
Chain of AT5G51230.1 EMF2 (Arabidopsis thaliana) (Q8L6Y4 whole entry): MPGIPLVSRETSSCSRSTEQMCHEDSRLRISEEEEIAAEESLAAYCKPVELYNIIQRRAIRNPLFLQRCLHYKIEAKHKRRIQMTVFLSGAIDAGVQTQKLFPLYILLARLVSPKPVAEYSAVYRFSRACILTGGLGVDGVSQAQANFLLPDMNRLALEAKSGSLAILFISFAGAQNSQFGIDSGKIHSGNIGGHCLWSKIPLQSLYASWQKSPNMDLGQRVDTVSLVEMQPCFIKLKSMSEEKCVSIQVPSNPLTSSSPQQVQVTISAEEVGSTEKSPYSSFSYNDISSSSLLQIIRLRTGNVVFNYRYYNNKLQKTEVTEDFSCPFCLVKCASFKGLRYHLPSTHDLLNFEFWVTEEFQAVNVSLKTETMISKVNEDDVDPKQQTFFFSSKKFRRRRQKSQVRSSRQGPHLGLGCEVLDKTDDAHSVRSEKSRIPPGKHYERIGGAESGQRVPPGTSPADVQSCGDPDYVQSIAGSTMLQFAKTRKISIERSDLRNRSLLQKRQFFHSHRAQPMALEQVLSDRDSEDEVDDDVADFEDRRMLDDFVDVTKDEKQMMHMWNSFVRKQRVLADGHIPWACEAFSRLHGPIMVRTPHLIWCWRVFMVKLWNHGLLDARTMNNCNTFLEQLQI

[12] = target: AT5G58230.1 MSI1 (Arabidopsis thaliana) (UniProt O22467); assay: IP-MS rep 1
[13] = target: AT1G22950.1 ICU11 (Arabidopsis thaliana) (UniProt Q3ED68); assay: IP-MS rep 2
[14] = target: AT1G49950.3 TRB1 (Arabidopsis thaliana) (UniProt Q8VWK4); assay: IP-MS rep 2
[15] = target: AT2G23380.1 CLF (Arabidopsis thaliana) (UniProt P93831); assay: IP-MS rep 2
[16] = target: AT3G10480.3 NAC050 (Arabidopsis thaliana) (UniProt Q9SQX9); assay: IP-MS rep 2
[17] = target: AT3G10490.2 NAC052 (Arabidopsis thaliana) (UniProt Q9SQY0); assay: IP-MS rep 2
[18] = target: AT3G18210.1 CP2 (Arabidopsis thaliana) (UniProt P0DO23); assay: IP-MS rep 2
[19] = target: AT3G20740.1 FIE (Arabidopsis thaliana) (UniProt Q9LT47); assay: IP-MS rep 2
[20] = target: T1, AT4G02020.1 SWN (Arabidopsis thaliana); assay: IP-MS rep 2
[21] = target: AT5G11530.1 EMF1 (Arabidopsis thaliana) (UniProt Q9LYD9); assay: IP-MS rep 2
[22] = target: T2, AT5G17690.1 LHP1 (Arabidopsis thaliana); assay: IP-MS rep 2
[23] = target: AT5G51230.1 EMF2 (Arabidopsis thaliana) (UniProt Q8L6Y4); assay: IP-MS rep 2
[24] = target: AT5G58230.1 MSI1 (Arabidopsis thaliana) (UniProt O22467); assay: IP-MS rep 2
[25] = target: AT1G22950.1 ICU11 (Arabidopsis thaliana) (UniProt Q3ED68); assay: X-link IP-MS
[26] = target: AT1G49950.3 TRB1 (Arabidopsis thaliana) (UniProt Q8VWK4); assay: X-link IP-MS
[27] = target: AT2G23380.1 CLF (Arabidopsis thaliana) (UniProt P93831); assay: X-link IP-MS
[28] = target: AT3G10480.3 NAC050 (Arabidopsis thaliana) (UniProt Q9SQX9); assay: X-link IP-MS
[29] = target: AT3G10490.2 NAC052 (Arabidopsis thaliana) (UniProt Q9SQY0); assay: X-link IP-MS
[30] = target: AT3G18210.1 CP2 (Arabidopsis thaliana) (UniProt P0DO23); assay: X-link IP-MS
[31] = target: AT3G20740.1 FIE (Arabidopsis thaliana) (UniProt Q9LT47); assay: X-link IP-MS
[32] = target: T1, AT4G02020.1 SWN (Arabidopsis thaliana); assay: X-link IP-MS
[33] = target: AT5G11530.1 EMF1 (Arabidopsis thaliana) (UniProt Q9LYD9); assay: X-link IP-MS
[34] = target: T2, AT5G17690.1 LHP1 (Arabidopsis thaliana); assay: X-link IP-MS
[35] = target: AT5G51230.1 EMF2 (Arabidopsis thaliana) (UniProt Q8L6Y4); assay: X-link IP-MS
[36] = target: AT5G58230.1 MSI1 (Arabidopsis thaliana) (UniProt O22467); assay: X-link IP-MS
[37] = target: AT4G20400.1 JMJ14 (Arabidopsis thaliana) (UniProt Q8GUI6); assay: IP-MS rep 1
[38] = target: AT4G38130.1 HDA19 (Arabidopsis thaliana) (UniProt O22446); assay: IP-MS rep 1
Chain of AT4G38130.1 HDA19 (Arabidopsis thaliana) (O22446 whole entry): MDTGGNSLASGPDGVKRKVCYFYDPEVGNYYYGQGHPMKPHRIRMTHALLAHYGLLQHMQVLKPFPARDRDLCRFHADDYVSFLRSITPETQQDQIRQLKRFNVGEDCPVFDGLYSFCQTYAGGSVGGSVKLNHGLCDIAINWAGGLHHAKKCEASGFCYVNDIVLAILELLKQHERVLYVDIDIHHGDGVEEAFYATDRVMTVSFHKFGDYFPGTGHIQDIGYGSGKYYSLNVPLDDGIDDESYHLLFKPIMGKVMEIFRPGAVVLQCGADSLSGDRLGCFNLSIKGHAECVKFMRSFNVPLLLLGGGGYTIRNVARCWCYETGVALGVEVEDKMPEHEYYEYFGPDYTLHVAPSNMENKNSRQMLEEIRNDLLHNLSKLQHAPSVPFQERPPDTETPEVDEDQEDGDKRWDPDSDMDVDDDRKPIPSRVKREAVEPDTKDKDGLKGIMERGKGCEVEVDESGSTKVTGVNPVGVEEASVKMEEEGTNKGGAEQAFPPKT

[39] = target: AT5G63110.1 HDA6 (Arabidopsis thaliana) (UniProt Q9FML2); assay: IP-MS rep 1
Chain of AT5G63110.1 HDA6 (Arabidopsis thaliana) (Q9FML2 whole entry): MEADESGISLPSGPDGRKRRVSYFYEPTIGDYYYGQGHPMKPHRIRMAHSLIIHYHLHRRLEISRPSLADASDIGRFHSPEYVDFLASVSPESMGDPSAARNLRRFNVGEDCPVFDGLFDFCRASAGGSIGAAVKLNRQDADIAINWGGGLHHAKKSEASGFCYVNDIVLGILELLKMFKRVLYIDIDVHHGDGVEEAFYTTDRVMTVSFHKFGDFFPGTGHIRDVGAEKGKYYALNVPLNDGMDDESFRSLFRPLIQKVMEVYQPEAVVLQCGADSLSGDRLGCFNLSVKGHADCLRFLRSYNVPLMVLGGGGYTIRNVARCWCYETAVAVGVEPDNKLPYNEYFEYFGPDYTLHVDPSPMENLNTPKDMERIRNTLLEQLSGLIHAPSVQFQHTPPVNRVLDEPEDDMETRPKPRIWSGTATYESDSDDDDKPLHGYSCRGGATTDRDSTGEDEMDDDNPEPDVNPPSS

[40] = target: AT4G20400.1 JMJ14 (Arabidopsis thaliana) (UniProt Q8GUI6); assay: IP-MS rep 2
[41] = target: AT4G38130.1 HDA19 (Arabidopsis thaliana) (UniProt O22446); assay: IP-MS rep 2
[42] = target: AT5G63110.1 HDA6 (Arabidopsis thaliana) (UniProt Q9FML2); assay: IP-MS rep 2

Chain of AT2G23380.1 CLF (Arabidopsis thaliana) (P93831 whole entry): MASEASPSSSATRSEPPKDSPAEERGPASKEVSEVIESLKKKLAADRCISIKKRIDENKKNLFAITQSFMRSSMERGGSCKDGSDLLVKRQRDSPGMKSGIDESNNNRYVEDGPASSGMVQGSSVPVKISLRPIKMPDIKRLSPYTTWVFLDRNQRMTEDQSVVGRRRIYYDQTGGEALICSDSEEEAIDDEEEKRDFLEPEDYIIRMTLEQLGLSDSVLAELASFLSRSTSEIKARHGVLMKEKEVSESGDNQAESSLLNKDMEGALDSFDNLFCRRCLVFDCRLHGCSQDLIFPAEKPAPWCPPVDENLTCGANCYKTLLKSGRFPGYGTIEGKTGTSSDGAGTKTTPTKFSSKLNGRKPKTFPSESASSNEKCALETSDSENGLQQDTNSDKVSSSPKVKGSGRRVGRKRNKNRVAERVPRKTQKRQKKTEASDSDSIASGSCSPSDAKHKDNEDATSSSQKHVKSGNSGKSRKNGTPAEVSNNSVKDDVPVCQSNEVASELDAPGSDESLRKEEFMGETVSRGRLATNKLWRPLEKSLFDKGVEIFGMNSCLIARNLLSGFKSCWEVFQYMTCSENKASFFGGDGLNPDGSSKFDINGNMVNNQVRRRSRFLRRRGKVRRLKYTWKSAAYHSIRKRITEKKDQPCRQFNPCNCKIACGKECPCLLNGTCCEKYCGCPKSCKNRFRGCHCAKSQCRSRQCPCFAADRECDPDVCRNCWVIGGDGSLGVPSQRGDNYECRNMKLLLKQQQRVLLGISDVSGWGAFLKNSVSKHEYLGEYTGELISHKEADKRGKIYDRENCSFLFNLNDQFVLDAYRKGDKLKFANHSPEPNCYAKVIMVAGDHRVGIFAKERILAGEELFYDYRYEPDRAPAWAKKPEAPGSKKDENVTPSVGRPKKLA
Chain of AT1G22950.1 ICU11 (Arabidopsis thaliana) (Q3ED68 whole entry): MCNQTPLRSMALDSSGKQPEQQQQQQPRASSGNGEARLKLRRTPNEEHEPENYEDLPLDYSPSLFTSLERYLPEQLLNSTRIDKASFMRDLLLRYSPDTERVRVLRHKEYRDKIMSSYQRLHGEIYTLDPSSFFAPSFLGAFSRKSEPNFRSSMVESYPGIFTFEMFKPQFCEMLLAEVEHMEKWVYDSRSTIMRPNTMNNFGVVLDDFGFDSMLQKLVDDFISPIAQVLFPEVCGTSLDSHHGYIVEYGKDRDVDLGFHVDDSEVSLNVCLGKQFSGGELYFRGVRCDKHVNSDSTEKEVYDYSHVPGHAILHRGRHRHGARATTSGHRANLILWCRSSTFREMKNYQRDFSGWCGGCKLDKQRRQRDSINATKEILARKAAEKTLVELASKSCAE
Chain of AT3G10480.3 NAC050 (Arabidopsis thaliana) (Q9SQX9 whole entry): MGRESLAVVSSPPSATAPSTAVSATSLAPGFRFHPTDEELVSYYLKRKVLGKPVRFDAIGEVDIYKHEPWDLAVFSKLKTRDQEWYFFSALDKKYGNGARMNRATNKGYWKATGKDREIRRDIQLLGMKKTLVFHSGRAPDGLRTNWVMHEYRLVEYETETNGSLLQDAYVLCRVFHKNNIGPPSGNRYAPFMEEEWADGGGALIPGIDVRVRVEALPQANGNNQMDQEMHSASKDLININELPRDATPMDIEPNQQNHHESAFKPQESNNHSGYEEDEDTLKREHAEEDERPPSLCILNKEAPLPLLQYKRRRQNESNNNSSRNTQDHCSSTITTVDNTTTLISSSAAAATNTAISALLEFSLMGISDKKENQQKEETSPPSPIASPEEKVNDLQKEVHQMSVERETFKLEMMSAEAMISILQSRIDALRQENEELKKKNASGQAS

Row | Substance | IP-MS count [1] | IP-MS count [2] | IP-MS count [3] | IP-MS count [4] | IP-MS count [5] | IP-MS count [7] | IP-MS count [8] | IP-MS count [9] | IP-MS count [10] | IP-MS count [11] | IP-MS count [12] | IP-MS count [13] | IP-MS count [15] | IP-MS count [17] | IP-MS count [19] | IP-MS count [20] | IP-MS count [21] | IP-MS count [22] | IP-MS count [23] | IP-MS count [24] | also measured
1 | FLAG-TRB2 (from UniProt Q9FJW5 1-299) | 53 | 0 | 5 | 1 | 11 | 30 | 11 | 55 | 15 | 10 | 26 | 50 | 5 | 22 | 28 | 12 | 56 | 15 | 15 | 21 | IP-MS count [6]: 4; IP-MS count [14]: 4; IP-MS count [16]: 1; IP-MS count [18]: 5; IP-MS count [25]: 33; IP-MS count [26]: 10; IP-MS count [27]: 15; IP-MS count [28]: 39; IP-MS count [29]: 55; IP-MS count [30]: 17; IP-MS count [31]: 35; IP-MS count [32]: 33; IP-MS count [33]: 90; IP-MS count [34]: 17; IP-MS count [35]: 27; IP-MS count [36]: 30
2 | TRBIP1 (bait of the TRBIP1 IP-MS) | 32 |  | 7 |  | 10 | 22 | 15 | 36 | 14 | 10 | 20 | 19 | 0 | 2 | 3 | 6 | 7 | 8 | 3 | 9 | IP-MS count [37]: 7; IP-MS count [38]: 4; IP-MS count [39]: 7; IP-MS count [40]: 0; IP-MS count [41]: 3; IP-MS count [42]: 5
3 | FLAG-TRB3 (from UniProt Q9M2X3 1-295) | 79 | 0 | 15 | 5 | 24 | 34 | 16 | 81 | 15 | 23 | 37 | 73 | 19 | 28 | 41 | 24 | 83 | 19 | 23 | 35 | IP-MS count [6]: 38; IP-MS count [14]: 0; IP-MS count [16]: 4; IP-MS count [18]: 31; IP-MS count [25]: 37; IP-MS count [26]: 9; IP-MS count [27]: 19; IP-MS count [28]: 39; IP-MS count [29]: 59; IP-MS count [30]: 12; IP-MS count [31]: 34; IP-MS count [32]: 36; IP-MS count [33]: 104; IP-MS count [34]: 18; IP-MS count [35]: 29; IP-MS count [36]: 31
4 | TRBIP2 (bait of the TRBIP2 IP-MS) | 16 |  |  |  | 4 |  | 3 | 4 |  |  | 3 | 4 |  | 0 |  | 0 | 0 |  |  | 0 | IP-MS count [37]: 3; IP-MS count [38]: 4; IP-MS count [39]: 10; IP-MS count [40]: 0; IP-MS count [41]: 1; IP-MS count [42]: 3
